Legend:
Experiment in all cases: cell-based or functional assay
[1] = molecular target: HIV-1 Env of pseudovirus PVO.4 (HIV-1)
[2] = molecular target: HIV-1 Env of pseudovirus A07412M1.vrc12 (HIV-1)
[3] = molecular target: HIV-1 Env of pseudovirus 6545.v4.c1 (HIV-1)
[4] = molecular target: HIV-1 Env of pseudovirus SC05_8C11_2344 (HIV-1)
[5] = molecular target: HIV-1 Env of pseudovirus 6811.v7.c18 (HIV-1)
[6] = molecular target: HIV-1 Env of pseudovirus T278-50 (HIV-1)
[7] = molecular target: HIV-1 Env of pseudovirus R3265.c06 (HIV-1)
[8] = molecular target: HIV-1 Env of pseudovirus 3817.v2.c59 (HIV-1)
[9] = molecular target: HIV-1 Env of pseudovirus CNE5 (HIV-1)
[10] = molecular target: HIV-1 Env of pseudovirus Du422.1 (HIV-1)
[11] = molecular target: HIV-1 Env of pseudovirus R2184.c04 (HIV-1)
[12] = molecular target: HIV-1 Env of pseudovirus T251-18 (HIV-1)
[13] = molecular target: HIV-1 Env of pseudovirus 1394C9G1(Rev-) (HIV-1)
[14] = molecular target: HIV-1 Env of pseudovirus Ce0393_C3 (HIV-1)
[15] = molecular target: HIV-1 Env of pseudovirus ZM249M.PL1 (HIV-1)
[16] = molecular target: HIV-1 Env of pseudovirus 191084 B7-19 (HIV-1)
[17] = molecular target: HIV-1 Env of pseudovirus 620345.c01 (HIV-1)
[18] = molecular target: HIV-1 Env of pseudovirus BJOX010000.06.2 (HIV-1)
[19] = molecular target: HIV-1 Env of pseudovirus Ce703010054_2A2 (HIV-1)
[20] = molecular target: HIV-1 Env of pseudovirus Du156.12 (HIV-1)
[21] = molecular target: HIV-1 Env of pseudovirus X1193_c1 (HIV-1)
[22] = molecular target: HIV-1 Env of pseudovirus Q769.d22 (HIV-1)
[23] = molecular target: HIV-1 Env of pseudovirus ZM233M.PB6 (HIV-1)
[24] = molecular target: HIV-1 Env of pseudovirus X2088_c9 (HIV-1)
[25] = molecular target: HIV-1 Env of pseudovirus ZM214M.PL15 (HIV-1)
[26] = molecular target: HIV-1 Env of pseudovirus 231965.c01 (HIV-1)
[27] = molecular target: HIV-1 Env of pseudovirus QH0692.42 (HIV-1)
[28] = molecular target: HIV-1 Env of pseudovirus Ce1172_H1 (HIV-1)
[29] = molecular target: HIV-1 Env of pseudovirus X2131_C1_B5 (HIV-1)
[30] = molecular target: HIV-1 Env of pseudovirus 1056_10_TA11_1826 (HIV-1)
[31] = molecular target: HIV-1 Env of pseudovirus THRO4156.18 (HIV-1)
[32] = molecular target: HIV-1 Env of pseudovirus 1006_11_C3_1601 (HIV-1)
[33] = molecular target: HIV-1 Env of pseudovirus Ce704809221_1B3 (HIV-1)
[34] = molecular target: HIV-1 Env of pseudovirus 246F C1G (HIV-1)
[35] = molecular target: HIV-1 Env of pseudovirus C2101.c01 (HIV-1)
[36] = molecular target: HIV-1 Env of pseudovirus WITO4160.33 (HIV-1)
[37] = molecular target: HIV-1 Env of pseudovirus SC422661.8 (HIV-1)

PGDM1400 (antibody) was tested, and the IC50 [1] was 0.484 µg/mL, the IC80 [1] was 6.49 µg/mL and the IC50, titer in TZM.bl cells [2] was 0.032 µg/mL. It also gave an IC80, titer in TZM.bl cells [2] of 0.127 µg/mL, an IC50, titer in TZM.bl cells [3] of 0.003 µg/mL and an IC80, titer in TZM.bl cells [3] of 0.039 µg/mL. It also gave an IC50 [4] of 1.26 µg/mL, an IC80 [4] of 3.59 µg/mL and an IC50, titer in TZM.bl cells [5] of over 50 µg/mL. It also gave an IC80, titer in TZM.bl cells [5] of over 50 µg/mL, an IC50, titer in TZM.bl cells [6] of 0.574 µg/mL and an IC80, titer in TZM.bl cells [6] of 4.94 µg/mL. The IC50, titer in TZM.bl cells [7] was 0.013 µg/mL, the IC80, titer in TZM.bl cells [7] was 0.041 µg/mL and the IC50, titer in TZM.bl cells [8] was over 50 µg/mL. The IC80, titer in TZM.bl cells [8] was over 50 µg/mL, the IC50, titer in TZM.bl cells [9] was under 0.001 µg/mL and the IC80, titer in TZM.bl cells [9] was under 0.001 µg/mL. For the same substance, the IC50 [10] was 0.694 µg/mL, the IC80 [10] was over 50 µg/mL and the IC50, titer in TZM.bl cells [11] was 0.003 µg/mL. For the same substance, the IC80, titer in TZM.bl cells [11] was 0.012 µg/mL, the IC50, titer in TZM.bl cells [12] was 8.62 µg/mL and the IC80, titer in TZM.bl cells [12] was 43.1 µg/mL. For the same substance, the IC50 [13] was under 0.001 µg/mL, the IC80 [13] was 0.004 µg/mL and the IC50 [14] was 0.015 µg/mL. The IC80 [14] was 0.044 µg/mL, the IC50 [15] was 0.016 µg/mL and the IC80 [15] was 0.701 µg/mL. The IC50 [16] was under 0.001 µg/mL, the IC80 [16] was 0.007 µg/mL and the IC50, titer in TZM.bl cells [17] was 0.009 µg/mL. For the same substance, the IC80, titer in TZM.bl cells [17] was 40.3 µg/mL, the IC50, titer in TZM.bl cells [18] was 0.605 µg/mL and the IC80, titer in TZM.bl cells [18] was 5.87 µg/mL. For the same substance, the IC50 [19] was 0.015 µg/mL, the IC80 [19] was 0.26 µg/mL and the IC50 [20] was 0.002 µg/mL. The IC80 [20] was 0.008 µg/mL, the IC50, titer in TZM.bl cells [21] was 0.219 µg/mL and the IC80, titer in TZM.bl cells [21] was 0.781 µg/mL. It also gave an IC50 [22] of 0.002 µg/mL, an IC80 [22] of 0.018 µg/mL and an IC50 [23] of under 0.001 µg/mL. It also gave an IC80 [23] of 0.001 µg/mL, an IC50, titer in TZM.bl cells [24] of over 50 µg/mL and an IC80, titer in TZM.bl cells [24] of over 50 µg/mL. For the same substance, the IC50 [25] was over 50 µg/mL, the IC80 [25] was over 50 µg/mL and the IC50, titer in TZM.bl cells [26] was 0.025 µg/mL. The IC80, titer in TZM.bl cells [26] was 1.28 µg/mL, the IC50 [27] was over 50 µg/mL and the IC80 [27] was over 50 µg/mL. The IC50 [28] was 0.021 µg/mL, the IC80 [28] was 0.06 µg/mL and the IC50, titer in TZM.bl cells [29] was 0.128 µg/mL. The IC80, titer in TZM.bl cells [29] was 0.568 µg/mL, the IC50 [30] was 3.26 µg/mL and the IC80 [30] was 11.8 µg/mL. The IC50 [31] was 0.072 µg/mL, the IC80 [31] was 0.348 µg/mL and the IC50 [32] was 4.32 µg/mL. For the same substance, the IC80 [32] was over 50 µg/mL, the IC50 [33] was 0.28 µg/mL and the IC80 [33] was 1.1 µg/mL. It also gave an IC50 [34] of over 50 µg/mL, an IC80 [34] of over 50 µg/mL and an IC50, titer in TZM.bl cells [35] of 0.006 µg/mL. For the same substance, the IC80, titer in TZM.bl cells [35] was 0.021 µg/mL, the IC50 [36] was under 0.001 µg/mL and the IC80 [36] was 0.008 µg/mL. The IC50 [37] was 0.436 µg/mL and the IC80 [37] was 6.53 µg/mL.
Work on VRC07 (antibody) yielded a neutralization IC50 [1] of 0.063 µg/mL, a neutralization IC80 [1] of 0.226 µg/mL and an IC50, titer in TZM.bl cells [2] of 0.11 µg/mL. For the same substance, the IC80, titer in TZM.bl cells [2] was 0.353 µg/mL, the IC50, titer in TZM.bl cells [3] was over 50 µg/mL and the IC80, titer in TZM.bl cells [3] was over 50 µg/mL. It also gave a neutralization IC50 [4] of 0.133 µg/mL, a neutralization IC80 [4] of 0.401 µg/mL and an IC50, titer in TZM.bl cells [5] of 0.093 µg/mL. It also gave an IC80, titer in TZM.bl cells [5] of 0.435 µg/mL, an IC50, titer in TZM.bl cells [6] of over 50 µg/mL and an IC80, titer in TZM.bl cells [6] of over 50 µg/mL. It also gave an IC50, titer in TZM.bl cells [8] of 1.9 µg/mL, an IC80, titer in TZM.bl cells [8] of 19.8 µg/mL and an IC50, titer in TZM.bl cells [9] of 0.138 µg/mL. It also gave an IC80, titer in TZM.bl cells [9] of 0.524 µg/mL, a neutralization IC50 [10] of over 50 µg/mL and a neutralization IC80 [10] of over 50 µg/mL. For the same substance, the IC50, titer in TZM.bl cells [11] was 0.02 µg/mL, the IC80, titer in TZM.bl cells [11] was 0.104 µg/mL and the IC50, titer in TZM.bl cells [12] was 1.32 µg/mL. It also gave an IC80, titer in TZM.bl cells [12] of 6.49 µg/mL, a neutralization IC50 [13] of 0.112 µg/mL and a neutralization IC80 [13] of 0.368 µg/mL. For the same substance, the neutralization IC50 [14] was 0.182 µg/mL, the neutralization IC80 [14] was 0.634 µg/mL and the neutralization IC50 [15] was 0.041 µg/mL. For the same substance, the neutralization IC80 [15] was 0.145 µg/mL, the neutralization IC50 [16] was 0.061 µg/mL and the neutralization IC80 [16] was 0.209 µg/mL. For the same substance, the IC50, titer in TZM.bl cells [17] was over 50 µg/mL, the IC80, titer in TZM.bl cells [17] was over 50 µg/mL and the IC50, titer in TZM.bl cells [18] was 1.06 µg/mL. The IC80, titer in TZM.bl cells [18] was 10 µg/mL, the neutralization IC50 [19] was 0.19 µg/mL and the neutralization IC80 [19] was 0.912 µg/mL. It also gave a neutralization IC50 [20] of 0.041 µg/mL, a neutralization IC80 [20] of 0.149 µg/mL and an IC50, titer in TZM.bl cells [21] of 0.037 µg/mL. For the same substance, the IC80, titer in TZM.bl cells [21] was 0.249 µg/mL, the neutralization IC50 [22] was 0.018 µg/mL and the neutralization IC80 [22] was 0.087 µg/mL. The neutralization IC50 [23] was 0.152 µg/mL, the neutralization IC80 [23] was 0.625 µg/mL and the IC50, titer in TZM.bl cells [24] was over 50 µg/mL. The IC80, titer in TZM.bl cells [24] was over 50 µg/mL, the neutralization IC50 [25] was 0.198 µg/mL and the neutralization IC80 [25] was 1.42 µg/mL. The IC50, titer in TZM.bl cells [26] was 0.085 µg/mL, the IC80, titer in TZM.bl cells [26] was 0.263 µg/mL and the neutralization IC50 [27] was 0.5 µg/mL. For the same substance, the neutralization IC80 [27] was 1.86 µg/mL, the neutralization IC50 [28] was over 50 µg/mL and the neutralization IC80 [28] was over 50 µg/mL. The IC50, titer in TZM.bl cells [29] was 0.219 µg/mL, the IC80, titer in TZM.bl cells [29] was 1.03 µg/mL and the neutralization IC50 [30] was 0.239 µg/mL. It also gave a neutralization IC80 [30] of 1.11 µg/mL, a neutralization IC50 [31] of 2.4 µg/mL and a neutralization IC80 [31] of 12.2 µg/mL. For the same substance, the neutralization IC50 [32] was 0.015 µg/mL, the neutralization IC80 [32] was 0.046 µg/mL and the neutralization IC50 [33] was 0.273 µg/mL. For the same substance, the neutralization IC80 [33] was 1.14 µg/mL, the neutralization IC50 [34] was 0.286 µg/mL and the neutralization IC80 [34] was 1.04 µg/mL. It also gave an IC50, titer in TZM.bl cells [35] of 0.238 µg/mL, an IC80, titer in TZM.bl cells [35] of 1.4 µg/mL and a neutralization IC50 [36] of 0.042 µg/mL. The neutralization IC80 [36] was 0.193 µg/mL, the neutralization IC50 [37] was 0.054 µg/mL and the neutralization IC80 [37] was 0.175 µg/mL.

Reference: patent US20230002480A1
